Target: T1, SH2-containing inositol-5-phosphatase (SHIP), mouse, endogenous protein in NK cell lysates (mouse, UniProt Q9ES52 1-1191, limits assumed)
T1 construct: Endogenous protein co-immunoprecipitated from NK-enriched C57BL6/J splenocyte lysates (modified RIPA buffer) and detected by Western blot with anti-SHIP P2C6; also called SH2-containing Inositol Polyphosphatase; 135/145 kD SHIP isoforms
T1 sequence (looked up): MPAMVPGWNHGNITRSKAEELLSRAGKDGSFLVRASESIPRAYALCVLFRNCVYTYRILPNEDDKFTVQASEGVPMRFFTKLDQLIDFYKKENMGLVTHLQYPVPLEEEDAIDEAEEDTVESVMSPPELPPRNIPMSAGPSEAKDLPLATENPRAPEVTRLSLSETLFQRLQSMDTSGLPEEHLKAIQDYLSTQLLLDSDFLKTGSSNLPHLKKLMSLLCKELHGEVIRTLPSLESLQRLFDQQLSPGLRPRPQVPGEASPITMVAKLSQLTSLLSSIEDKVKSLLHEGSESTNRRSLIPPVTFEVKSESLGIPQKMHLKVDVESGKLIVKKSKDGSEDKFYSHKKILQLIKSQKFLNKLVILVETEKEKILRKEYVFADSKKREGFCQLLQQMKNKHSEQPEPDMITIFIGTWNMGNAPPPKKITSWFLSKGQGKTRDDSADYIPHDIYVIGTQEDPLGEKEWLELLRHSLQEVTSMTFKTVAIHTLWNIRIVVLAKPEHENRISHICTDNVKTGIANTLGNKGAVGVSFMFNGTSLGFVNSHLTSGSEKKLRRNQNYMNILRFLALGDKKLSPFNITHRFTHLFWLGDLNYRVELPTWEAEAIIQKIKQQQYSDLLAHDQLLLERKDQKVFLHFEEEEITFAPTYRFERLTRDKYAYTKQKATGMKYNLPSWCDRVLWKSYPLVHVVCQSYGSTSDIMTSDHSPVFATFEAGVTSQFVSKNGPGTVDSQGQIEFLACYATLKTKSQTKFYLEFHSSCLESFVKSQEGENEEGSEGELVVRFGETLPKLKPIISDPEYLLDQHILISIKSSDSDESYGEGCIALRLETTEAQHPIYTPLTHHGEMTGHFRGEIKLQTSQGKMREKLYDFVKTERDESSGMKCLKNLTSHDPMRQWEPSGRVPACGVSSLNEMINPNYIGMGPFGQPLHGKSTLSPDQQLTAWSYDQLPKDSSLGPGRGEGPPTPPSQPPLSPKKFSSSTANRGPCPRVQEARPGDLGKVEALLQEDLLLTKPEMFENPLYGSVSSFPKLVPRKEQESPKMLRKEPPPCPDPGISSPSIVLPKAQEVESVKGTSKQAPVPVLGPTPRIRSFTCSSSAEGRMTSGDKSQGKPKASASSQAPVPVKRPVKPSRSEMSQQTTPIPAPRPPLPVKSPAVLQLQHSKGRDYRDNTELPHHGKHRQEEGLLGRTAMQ
Experiment: co-immunoprecipitation from NK-enriched splenocyte lysates, Western blot with anti-SHIP P2C6
Excerpt: Equal quantities of protein from cells lysates prepared from SHIP^{+/+} and SHIP^{-/-} NK cells are resolved on a 4-12% Tris-Bis polyacrylamide gel (Invitrogen), transferred to a nitrocellulose membrane (Amersham) and the filters probed with an anti-Akt-P(Threo) antibody (Cell Signaling) at a 1:1000 dilution. […] The blot is then stripped and reprobed in a similar manner using an anti-β-actin antibody (Cell Signaling) as an internal control for protein loading.
Thus, in FIG. 5, SHIP is shown to be recruited to NK inhibitory receptors and to oppose Akt activation in vivo. […] A mock immunoprecipitation of the NK lysates with an IgG2a antibody is analyzed in parallel as a negative control. The results of these immunoprecipitations are representative of two independent analyses of NK-enriched splenocytes. […] Immunoprecipitation of SHIP from NK cell lysates serves as positive control in both (A) and (B). In (A) a one-tenth exposure of the SHIP lane enables the 135/145 kD SHIP isoforms to be distinguished clearly. […] To control for the amount of cell lysate loaded in each sample, the Akt-P blot is stripped and re-probed with an antibody specific for β-actin, GAPDH, and cc tubulin. […] Immunoprecipitation with a murine IgG2a antibody (IgG2a) is analyzed as a negative control and SHIP is immunoprecipitated as a positive control. […]

B1: Ly49G2, mouse NK inhibitory receptor (receptor, UniProt Q60654-2 1-267, looked up)
chain: MSEQEVTYSTVRFHESSRLQKLVRTEEPQRPREACYREYSVPWKLIVIACGILCFLLLVTVALLAITIFQHSQQKHELQETLNCHDNCSPTQSDVNLKDELLRNKSIECRPGNDLLESLSRDQNRWYSETKTFSDSSQHTGRGFEKYWFCYGIKCYYFNMDRKTWSGCKQTCQISSLSLLKIDNEDELKFLQNLAPSDISWIGLSYDNKKKDWVWIDNGPSKLALNTTKYNIRDGLCMSLSKTRLDNGDCDKSYICICGKRLDKFPH
notes: Immunoprecipitated with anti-Ly49G2 (4D11)
binding result: no binding
